Source: PMC8693265, “Investigation of PAS and CNBH domain interactions in hERG channels and effects of long-QT syndrome-causing mutations with surface plasmon resonance” (The Journal of Biological Chemistry, 2021)
Where a chain is given by its changes, count along the chain named. Names and notes keep the numbering of the source. Read-outs that look alike come from different tables or passages of the source.

B1: mEAG PAS domain (residues 7-136) (domain or fragment, mouse (from the name mEAG), UniProt Q60603 7-136, looked up)
chain: RRGLVAPQNTFLENIVRRSNDTNFVLGNAQIVDWPIVYSNDGFCKLSGYHRAEVMQKSSACSFMYGELTDKDTVEKVRQTFENYEMNSFEILMYKKNRTPVWFFVKIAPIRNEQDKVVLFLCTFSDITAF
notes: PAS domain of the mEAG channel, residues 7-136; not shown: 6-His, N-terminal, cleaved
B2: hERG PAS domain (residues 2-134) (domain or fragment, human, UniProt Q12809 2-134, looked up)
chain: PVRRGHVAPQNTFLDTIIRKFEGQSRKFIIANARVENCAVIYCNDGFCELCGYSRAEVMQRPCTCDFLHGPRTQRRAAAQIAQALLGAEERKVEIAFYRKDGSCFLCLVDVVPVKNEDGAVIMFILNFEVVME
notes: PAS domain (with PAS-cap) of the human ether-a-go-go-related gene (hERG, Kv11.1, KCNH2) channel, residues 2-134; Cloned in pETM11; The PAS domain expressed from mRNA in oocytes (pGH19) is written under this molecule in the functional rows; also called isolated PAS domain; free PAS domain; not shown: 6-His, N-terminal, cleaved
B3: hERG PAS domain with the LQTS-causing mutation E58D (domain or fragment, human, UniProt Q12809 2-134, looked up)
chain: B2 chain with E57D
notes: PAS domain of the hERG (KCNH2) channel, residues 2-134, with the genetically occurring LQTS mutation E58D; also called PAS-E58D; not shown: 6-His, N-terminal, cleaved
B4: hERG PAS domain with the LQTS-causing mutation R20G (domain or fragment, human, UniProt Q12809 2-134, looked up)
chain: B2 chain with R19G
notes: PAS domain of the hERG (KCNH2) channel, residues 2-134, with the genetically occurring LQTS mutation R20G; also called PAS-R20G; not shown: 6-His, N-terminal, cleaved
B5: hERG CNBH domain (residues 734-867) (domain or fragment, human, UniProt Q12809 734-867, looked up)
chain: RSLLQHCKPFRGATKGCLRALAMKFKTTHAPPGDTLVHAGDLLTALYFISRGSIEILRGDVVVAILGKNDIFGEPLNLYARPGKSNGDVRALTYCDLHKIHRDDLLEVLDMYPEFSDHFWSSLEITFNLRDTNM
notes: also called isolated CNBH domain; not shown: 6-His, N-terminal, cleaved

What was measured:
Assay in all cases: SPR; one domain amine-coupled to a CM5 chip (~2000-3000 RU), the other injected as analyte over a range of concentrations (maximum 10 uM); Biacore T200, 25 C; 150 mM KCl, 1 mM TCEP, 10% glycerol, 0.05% Tween 20, 30 mM HEPES pH 7.5; fits with the two-state reaction model; for PAS/PAS and CNBH/CNBH the step of oligomerisation is not told
[1] = biological target: B2; conditions: both partners purified
[2] = biological target: B5; conditions: both partners purified
[3] = biological target: the molecule itself
[4] = biological target: B5; conditions: both partners purified; remark: listed apart in the source
[5] = biological target: the molecule itself; remark: listed apart in the source

Binder | Kd [1] | Kd [2] | Kd [3] | Kd [4] | Kd [5]
B1 | ~5600 nM | ~1700 nM |  |  | 
B2 |  |  | 400 nM | 1400 nM | 1600 nM
B3 |  | 200 nM |  | 600 nM | 
B4 |  | 2000 nM |  | 3600 nM | 
B5 |  |  | 5000 nM |  | 2700 nM
